Experimental data: publication PMC9864010

Assays:
[1] = target: AP205 cVLP displaying SpyCatcher (SpyC-cVLP) (Acinetobacter phage AP205); assay: covalent SpyTag/SpyCatcher coupling shown by reduced SDS-PAGE with densitometry; FL PCSK9-SpyT in 100 mM HEPES, 500 mM NaCl, pH 7 mixed 1:1.2 (cVLP subunit per antigen) with SpyC-cVLP, HEPES to 250 mM and L-Arginine to 500 mM, overnight at 4 °C; coupling band on reduced SDS-PAGE; coupling efficiency by densitometry
[2] = target: AP205 cVLP displaying SpyTag (SpyT-cVLP) (Acinetobacter phage AP205); assay: covalent SpyTag/SpyCatcher coupling shown by reduced SDS-PAGE with densitometry; SpyT-cVLP and SpyC-PCSK9 antigen mixed in a 1:2 molar ratio in PBS, pH 7.4, overnight at 4 °C; coupling band on reduced SDS-PAGE; coupling efficiency = coupled cVLP subunits/(coupled + uncoupled cVLP subunits) by densitometry

Substance	antigen coupling efficiency (percentage of binding sites per cVLP conjugated to an antigen) [1]	antigen coupling efficiency (percentage of binding sites per cVLP conjugated to an antigen) [2]
FL PCSK9-SpyT (muPCSK9(35–694) R221S-SpyT)	40%	
SpyC-PCSK9(210–226) (from UniProt Q80W65 210-226)		80%
SpyC-PCSK9(156–227) (from UniProt Q80W65 156-227)		60%
